Data published in US20170342107A1 (REGENTS OF THE UNIVERSITY OF MINNESOTA, published 2017).
Square brackets hold non-standard residues; d marks the D form. Bip = N[C@@H](Cc1ccc(-c2ccccc2)cc1)C(=O)O; dPhe(4-I) = N[C@H](Cc1ccc(I)cc1)C(=O)O; 2Nal = N[C@@H](Cc1ccc2ccccc2c1)C(=O)O; d2Nal = N[C@H](Cc1ccc2ccccc2c1)C(=O)O; Bta = N[C@@H](Cc1csc2ccccc12)C(=O)O; Tic = O=C(O)[C@@H]1Cc2ccccc2CN1

B1: SKY4-48-31, Ac-Phe-Arg-(pI)DPhe-Phe-NH2 (peptide)
peptide: Ac-FR[dPhe(4-I)]F-NH2
SMILES: CC(=O)N[C@@H](Cc1ccccc1)C(=O)N[C@@H](CCCNC(=N)N)C(=O)N[C@H](Cc1ccc(I)cc1)C(=O)N[C@@H](Cc1ccccc1)C(N)=O
B2: SKY4-48-32, Ac-Nal(2')-Arg-(pI)DPhe-Phe-NH2 (peptide)
peptide: Ac-[2Nal]R[dPhe(4-I)]F-NH2
SMILES: CC(=O)N[C@@H](Cc1ccc2ccccc2c1)C(=O)N[C@@H](CCCNC(=N)N)C(=O)N[C@H](Cc1ccc(I)cc1)C(=O)N[C@@H](Cc1ccccc1)C(N)=O
B3: SKY5-146-4, Ac-3Bal-Arg-(pI)DPhe-Phe-NH2 (peptide)
peptide: Ac-[Bta]R[dPhe(4-I)]F-NH2
SMILES: CC(=O)N[C@@H](Cc1csc2ccccc12)C(=O)N[C@@H](CCCNC(=N)N)C(=O)N[C@H](Cc1ccc(I)cc1)C(=O)N[C@@H](Cc1ccccc1)C(N)=O
B4: SKY4-48-28, Ac-Bip-Arg-(pI)DPhe-Phe-NH2 (peptide)
peptide: Ac-[Bip]R[dPhe(4-I)]F-NH2
SMILES: CC(=O)N[C@@H](Cc1ccc(-c2ccccc2)cc1)C(=O)N[C@@H](CCCNC(=N)N)C(=O)N[C@H](Cc1ccc(I)cc1)C(=O)N[C@@H](Cc1ccccc1)C(N)=O
B5: SKY4-48-30, Ac-Tic-Arg-(pI)DPhe-Phe-NH2 (peptide)
peptide: Ac-[Tic]R[dPhe(4-I)]F-NH2
SMILES: CC(=O)N1Cc2ccccc2C[C@H]1C(=O)N[C@@H](CCCNC(=N)N)C(=O)N[C@H](Cc1ccc(I)cc1)C(=O)N[C@@H](Cc1ccccc1)C(N)=O
B6: SKY5-146-7, Ac-His-Arg-(pI)DPhe-Trp-NH2 (peptide)
peptide: Ac-HR[dPhe(4-I)]W-NH2
SMILES: CC(=O)N[C@@H](Cc1c[nH]cn1)C(=O)N[C@@H](CCCNC(=N)N)C(=O)N[C@H](Cc1ccc(I)cc1)C(=O)N[C@@H](Cc1c[nH]c2ccccc12)C(N)=O
B7: SKY4-48-26, Ac-Arg-Arg-(pI)DPhe-Phe-NH2 (peptide)
peptide: Ac-RR[dPhe(4-I)]F-NH2
SMILES: CC(=O)N[C@@H](CCCNC(=N)N)C(=O)N[C@@H](CCCNC(=N)N)C(=O)N[C@H](Cc1ccc(I)cc1)C(=O)N[C@@H](Cc1ccccc1)C(N)=O

Each binder was assayed against T1, mouse melanocortin-3 receptor (mouse, UniProt P33033 1-323) (assay: cell-based or functional assay).
T1 sequence (P33033 whole entry): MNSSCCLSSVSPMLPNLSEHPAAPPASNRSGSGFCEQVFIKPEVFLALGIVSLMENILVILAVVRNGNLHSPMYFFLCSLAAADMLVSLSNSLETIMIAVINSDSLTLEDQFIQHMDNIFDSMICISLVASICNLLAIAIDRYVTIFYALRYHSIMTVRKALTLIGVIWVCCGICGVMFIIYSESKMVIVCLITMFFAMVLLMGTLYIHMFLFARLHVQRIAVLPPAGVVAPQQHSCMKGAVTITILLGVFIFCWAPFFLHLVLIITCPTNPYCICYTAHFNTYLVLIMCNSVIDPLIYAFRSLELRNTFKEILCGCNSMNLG

Binder | Agonist, % of NDP-MSH maximal response
B1 | 50 % @ 100 µM
Ac-[d2Nal]R[dPhe(4-I)][d2Nal]-NH2 [SKY4-48-49, Ac-DNal(2')-Arg-(pI)DPhe-DNal(2')-NH2] | 40 % @ 100 µM
Ac-[2Nal]R[dPhe(4-I)][2Nal]-NH2 [SKY4-48-40, Ac-Nal(2')-Arg-(pI)DPhe-Nal(2')-NH2] | 39 % @ 100 µM
Ac-HR[dPhe(4-I)][Bip]-NH2 [SKY4-48-3, Ac-His-Arg-(pI)DPhe-Bip-NH2] | 53 % @ 100 µM
Ac-RR[dPhe(4-I)][2Nal]-NH2 [SKY4-48-34, Ac-Arg-Arg-(pI)DPhe-Nal(2')-NH2] | 51 % @ 100 µM
Ac-[d2Nal]R[dPhe(4-I)][Bip]-NH2 [SKY5-146-2, Ac-DNal(2')-Arg-(pI)DPhe-Bip-NH2] | 30 % @ 100 µM
B2 | 42 % @ 100 µM
Ac-FR[dPhe(4-I)][2Nal]-NH2 [SKY4-48-39, Ac-Phe-Arg-(pI)DPhe-Nal(2')-NH2] | 44 % @ 100 µM
Ac-[Bip]R[dPhe(4-I)][d2Nal]-NH2 [SKY4-48-44, Ac-Bip-Arg-(pI)DPhe-DNal(2')-NH2] | 32 % @ 100 µM
Ac-[Bta]R[dPhe(4-I)][d2Nal]-NH2 [SKY4-48-45, Ac-3Bal-Arg-(pI)DPhe-DNal(2')-NH2] | 34 % @ 100 µM
Ac-[2Nal]R[dPhe(4-I)][d2Nal]-NH2 [SKY4-48-48, Ac-Nal(2')-Arg-(pI)DPhe-DNal(2')-NH2] | 31 % @ 100 µM
B3 | 37 % @ 100 µM
Ac-FR[dPhe(4-I)][Bip]-NH2 [SKY4-48-7, Ac-Phe-Arg-(pI)DPhe-Bip-NH2] | 30 % @ 100 µM
Ac-[d2Nal]R[dPhe(4-I)][2Nal]-NH2 [SKY5-146-5, Ac-DNal(2')-Arg-(pI)DPhe-Nal(2')-NH2] | 43 % @ 100 µM
Ac-[Bta]R[dPhe(4-I)][Bip]-NH2 [SKY4-48-5, Ac-3Bal-Arg-(pI)DPhe-Bip-NH2] | 51 % @ 100 µM
Ac-RR[dPhe(4-I)][Bip]-NH2 [SKY4-48-2, Ac-Arg-Arg-(pI)DPhe-Bip-NH2] | 45 % @ 100 µM
B4 | 77 % @ 100 µM
Ac-[Tic]R[dPhe(4-I)][d2Nal]-NH2 [SKY4-48-46, Ac-Tic-Arg-(pI)DPhe-DNal(2')-NH2] | 42 % @ 100 µM
Ac-HR[dPhe(4-I)][2Nal]-NH2 [SKY4-48-35, Ac-His-Arg-(pI)DPhe-Nal(2')-NH2] | 57 % @ 100 µM
Ac-FR[dPhe(4-I)][d2Nal]-NH2 [SKY4-48-47, Ac-Phe-Arg-(pI)DPhe-DNal(2')-NH2] | 22 % @ 100 µM

Each binder was assayed against T2, mouse melanocortin-4 receptor (mouse, UniProt P56450 1-332) (assay: cell-based or functional assay).
T2 sequence (P56450 whole entry): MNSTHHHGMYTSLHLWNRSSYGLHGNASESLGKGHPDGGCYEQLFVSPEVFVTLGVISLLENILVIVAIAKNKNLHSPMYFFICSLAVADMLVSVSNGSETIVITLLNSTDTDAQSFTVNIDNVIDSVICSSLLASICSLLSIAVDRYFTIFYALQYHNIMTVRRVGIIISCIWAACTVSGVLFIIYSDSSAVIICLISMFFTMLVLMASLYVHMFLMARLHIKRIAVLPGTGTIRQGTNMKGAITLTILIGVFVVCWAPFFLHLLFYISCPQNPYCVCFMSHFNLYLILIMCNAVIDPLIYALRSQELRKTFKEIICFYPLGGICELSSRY

Binder | Agonist, % of NDP-MSH maximal response
Ac-[d2Nal]R[dPhe(4-I)][d2Nal]-NH2 [SKY4-48-49, Ac-DNal(2')-Arg-(pI)DPhe-DNal(2')-NH2] | 37 % @ 100 µM
Ac-HR[dPhe(4-I)][Bip]-NH2 [SKY4-48-3, Ac-His-Arg-(pI)DPhe-Bip-NH2] | 43 % @ 100 µM
Ac-[Bta]R[dPhe(4-I)][Tic]-NH2 [SKY4-48-21, Ac-3Bal-Arg-(pI)DPhe-Tic-NH2] | 37 % @ 100 µM
Ac-[d2Nal]R[dPhe(4-I)][Bip]-NH2 [SKY5-146-2, Ac-DNal(2')-Arg-(pI)DPhe-Bip-NH2] | 42 % @ 100 µM
Ac-[Bip]R[dPhe(4-I)][Bip]-NH2 [SKY4-48-4, Ac-Bip-Arg-(pI)DPhe-Bip-NH2] | 24 % @ 100 µM
Ac-[Bta]R[dPhe(4-I)][d2Nal]-NH2 [SKY4-48-45, Ac-3Bal-Arg-(pI)DPhe-DNal(2')-NH2] | 38 % @ 100 µM
Ac-[2Nal]R[dPhe(4-I)][Tic]-NH2 [SKY4-48-24, Ac-Nal(2')-Arg-(pI)DPhe-Tic-NH2] | 33 % @ 100 µM
Ac-HR[dPhe(4-I)][d2Nal]-NH2 [SKY4-48-43, Ac-His-Arg-(pI)DPhe-DNal(2')-NH2] | 50 % @ 100 µM
Ac-[d2Nal]R[dPhe(4-I)][Bta]-NH2 [SKY4-48-17, Ac-DNal(2')-Arg-(pI)DPhe-3Bal-NH2] | 45 % @ 100 µM
Ac-[Tic]R[dPhe(4-I)][Tic]-NH2 [SKY6-24-1, Ac-Tic-Arg-(pI)DPhe-Tic-NH2] | 36 % @ 100 µM
Ac-RR[dPhe(4-I)][Bta]-NH2 [SKY4-48-10, Ac-Arg-Arg-(pI)DPhe-3Bal-NH2] | 24 % @ 100 µM
Ac-[d2Nal]R[dPhe(4-I)][2Nal]-NH2 [SKY5-146-5, Ac-DNal(2')-Arg-(pI)DPhe-Nal(2')-NH2] | 39 % @ 100 µM
Ac-[Bta]R[dPhe(4-I)][Bip]-NH2 [SKY4-48-5, Ac-3Bal-Arg-(pI)DPhe-Bip-NH2] | 35 % @ 100 µM
Ac-RR[dPhe(4-I)][Bip]-NH2 [SKY4-48-2, Ac-Arg-Arg-(pI)DPhe-Bip-NH2] | 32 % @ 100 µM
Ac-[Tic]R[dPhe(4-I)][d2Nal]-NH2 [SKY4-48-46, Ac-Tic-Arg-(pI)DPhe-DNal(2')-NH2] | 33 % @ 100 µM
Ac-HR[dPhe(4-I)][2Nal]-NH2 [SKY4-48-35, Ac-His-Arg-(pI)DPhe-Nal(2')-NH2] | 35 % @ 100 µM

Each binder was assayed against mouse melanocortin-1 receptor (mouse, UniProt Q01727 1-315) (assay: cell-based or functional assay).
Sequence of mouse melanocortin-1 receptor (Q01727 whole entry): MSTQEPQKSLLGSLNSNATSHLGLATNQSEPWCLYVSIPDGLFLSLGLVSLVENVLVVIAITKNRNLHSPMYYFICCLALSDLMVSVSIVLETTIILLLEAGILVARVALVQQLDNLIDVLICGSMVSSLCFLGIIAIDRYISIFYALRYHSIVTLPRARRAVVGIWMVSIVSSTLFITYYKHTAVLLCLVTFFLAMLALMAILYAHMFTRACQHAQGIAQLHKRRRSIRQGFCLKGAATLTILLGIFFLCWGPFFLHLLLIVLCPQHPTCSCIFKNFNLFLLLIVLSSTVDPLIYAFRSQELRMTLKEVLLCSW

Binder | Agonist, % of NDP-MSH maximal response
Ac-[Tic]R[dPhe(4-I)][Bip]-NH2 [SKY5-146-1, Ac-Tic-Arg-(pI)DPhe-Bip-NH2] | 39 % @ 100 µM
Ac-[Tic]R[dPhe(4-I)][2Nal]-NH2 [SKY4-48-38, Ac-Tic-Arg-(pI)DPhe-Nal(2')-NH2] | 66 % @ 100 µM
Ac-[Tic]R[dPhe(4-I)][Bta]-NH2 [SKY4-48-14, Ac-Tic-Arg-(pI)DPhe-3Bal-NH2] | 38 % @ 100 µM
Ac-[Bta]R[dPhe(4-I)][d2Nal]-NH2 [SKY4-48-45, Ac-3Bal-Arg-(pI)DPhe-DNal(2')-NH2] | 36 % @ 100 µM
Ac-[2Nal]R[dPhe(4-I)][d2Nal]-NH2 [SKY4-48-48, Ac-Nal(2')-Arg-(pI)DPhe-DNal(2')-NH2] | 53 % @ 100 µM
Ac-[Bip]R[dPhe(4-I)][2Nal]-NH2 [SKY4-48-36, Ac-Bip-Arg-(pI)DPhe-Nal(2')-NH2] | 23 % @ 100 µM
Ac-FR[dPhe(4-I)][Bip]-NH2 [SKY4-48-7, Ac-Phe-Arg-(pI)DPhe-Bip-NH2] | 67 % @ 100 µM
Ac-RR[dPhe(4-I)][Bip]-NH2 [SKY4-48-2, Ac-Arg-Arg-(pI)DPhe-Bip-NH2] | 44 % @ 100 µM

These binders were tested against mouse melanocortin-5 receptor (mouse, UniProt P41149 1-325) (assay: cell-based or functional assay).
Sequence of mouse melanocortin-5 receptor (P41149 whole entry): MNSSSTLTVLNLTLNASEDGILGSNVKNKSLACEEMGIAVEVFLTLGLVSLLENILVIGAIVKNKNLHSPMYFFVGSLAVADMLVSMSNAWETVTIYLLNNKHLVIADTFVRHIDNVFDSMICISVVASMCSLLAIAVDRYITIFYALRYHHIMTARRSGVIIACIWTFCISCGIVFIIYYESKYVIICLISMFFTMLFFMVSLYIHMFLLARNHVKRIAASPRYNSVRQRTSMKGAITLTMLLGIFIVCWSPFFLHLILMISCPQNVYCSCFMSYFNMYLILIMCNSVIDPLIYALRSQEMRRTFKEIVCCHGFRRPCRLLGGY

Binder | Agonist, % of NDP-MSH maximal response
B1 | 52 % @ 100 µM
Ac-[d2Nal]R[dPhe(4-I)][d2Nal]-NH2 [SKY4-48-49, Ac-DNal(2')-Arg-(pI)DPhe-DNal(2')-NH2] | 43 % @ 100 µM
Ac-[2Nal]R[dPhe(4-I)][2Nal]-NH2 [SKY4-48-40, Ac-Nal(2')-Arg-(pI)DPhe-Nal(2')-NH2] | 45 % @ 100 µM
Ac-[Tic]R[dPhe(4-I)][2Nal]-NH2 [SKY4-48-38, Ac-Tic-Arg-(pI)DPhe-Nal(2')-NH2] | 48 % @ 100 µM
B2 | 49 % @ 100 µM
Ac-FR[dPhe(4-I)][2Nal]-NH2 [SKY4-48-39, Ac-Phe-Arg-(pI)DPhe-Nal(2')-NH2] | 61 % @ 100 µM
Ac-[Bip]R[dPhe(4-I)][d2Nal]-NH2 [SKY4-48-44, Ac-Bip-Arg-(pI)DPhe-DNal(2')-NH2] | 55 % @ 100 µM
Ac-[Bta]R[dPhe(4-I)][d2Nal]-NH2 [SKY4-48-45, Ac-3Bal-Arg-(pI)DPhe-DNal(2')-NH2] | 41 % @ 100 µM
Ac-HR[dPhe(4-I)][d2Nal]-NH2 [SKY4-48-43, Ac-His-Arg-(pI)DPhe-DNal(2')-NH2] | 47 % @ 100 µM
Ac-[2Nal]R[dPhe(4-I)][d2Nal]-NH2 [SKY4-48-48, Ac-Nal(2')-Arg-(pI)DPhe-DNal(2')-NH2] | 40 % @ 100 µM
B3 | 35 % @ 100 µM
Ac-[Bip]R[dPhe(4-I)][2Nal]-NH2 [SKY4-48-36, Ac-Bip-Arg-(pI)DPhe-Nal(2')-NH2] | 21 % @ 100 µM
B5 | 21 % @ 100 µM
Ac-[d2Nal]R[dPhe(4-I)][2Nal]-NH2 [SKY5-146-5, Ac-DNal(2')-Arg-(pI)DPhe-Nal(2')-NH2] | 40 % @ 100 µM
B4 | 69 % @ 100 µM
Ac-[Tic]R[dPhe(4-I)][d2Nal]-NH2 [SKY4-48-46, Ac-Tic-Arg-(pI)DPhe-DNal(2')-NH2] | 74 % @ 100 µM
Ac-[Bta]R[dPhe(4-I)][2Nal]-NH2 [SKY4-48-37, Ac-3Bal-Arg-(pI)DPhe-Nal(2')-NH2] | 50 % @ 100 µM
Ac-FR[dPhe(4-I)][d2Nal]-NH2 [SKY4-48-47, Ac-Phe-Arg-(pI)DPhe-DNal(2')-NH2] | 39 % @ 100 µM

Target: T2, mouse melanocortin-4 receptor
Assay: cell-based or functional assay
Remark: another data set of the same source

Binder | Agonist, % of NDP-MSH maximal response | pA2 (antagonist)
B6 | 29 % @ 100 µM | 6 pA2

What follows are binders tested against T1, mouse melanocortin-3 receptor (assay: 125I-NDP-MSH competitive displacement, HEK293 cells stably expressing mMC3R; negative = more potent than control).
Description: (§1) A typical experiment utilized a 12-well format.

Binder | Fold Diff. (IC50 against SKY4-48-1)
Ac-RR[dPhe(4-I)][Bta]-NH2 [SKY4-48-10, Ac-Arg-Arg-(pI)DPhe-3Bal-NH2] | -52 fold
B7 | -8 fold

The binders below were run against T2, mouse melanocortin-4 receptor (assay: 125I-NDP-MSH competitive displacement, HEK293 cells stably expressing mMC4R; negative = more potent than control).
Description: as §1

Binder | Fold Diff. (IC50 against SKY4-48-1)
Ac-RR[dPhe(4-I)][Bta]-NH2 [SKY4-48-10, Ac-Arg-Arg-(pI)DPhe-3Bal-NH2] | 1 fold
B7 | 4 fold
